Legend:
c-Src SH2 = assay: SH2 binding enrichment of the phosphorylated peptide, bacterial display (enrichment ratio); higher = better substrate or ligand; peptides without Tyr show the background
SHP2-C SH2 = assay: as above
Grb2 SH2 = Grb2 SH2 (UniProt P62993); assay: as above
MERTK = MERTK (UniProt Q12866); assay: phosphorylation enrichment, bacterial display (enrichment ratio); higher = better substrate or ligand; peptides without Tyr show the background
Fyn = Fyn (UniProt P06241); assay: as above
Chain of Fyn (P06241 whole entry, looked up): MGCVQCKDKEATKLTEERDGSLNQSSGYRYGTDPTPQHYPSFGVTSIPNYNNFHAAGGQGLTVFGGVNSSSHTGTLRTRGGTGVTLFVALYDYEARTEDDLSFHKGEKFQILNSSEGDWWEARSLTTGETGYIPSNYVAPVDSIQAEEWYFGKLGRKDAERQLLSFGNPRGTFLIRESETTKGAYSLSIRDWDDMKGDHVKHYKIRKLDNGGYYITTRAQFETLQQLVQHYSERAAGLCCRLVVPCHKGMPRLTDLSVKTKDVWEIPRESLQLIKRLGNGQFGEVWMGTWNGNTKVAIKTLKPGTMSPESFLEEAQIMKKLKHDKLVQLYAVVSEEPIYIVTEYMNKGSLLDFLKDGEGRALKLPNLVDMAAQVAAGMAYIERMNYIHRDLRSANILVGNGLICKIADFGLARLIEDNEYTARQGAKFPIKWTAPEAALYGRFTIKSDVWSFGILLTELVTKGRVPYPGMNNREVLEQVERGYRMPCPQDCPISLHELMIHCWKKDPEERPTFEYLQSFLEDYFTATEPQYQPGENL

AncSZ = assay: as above
c-Src = assay: as above
Fes = Fes (UniProt P07332); assay: as above
Chain of Fes (P07332 whole entry, looked up): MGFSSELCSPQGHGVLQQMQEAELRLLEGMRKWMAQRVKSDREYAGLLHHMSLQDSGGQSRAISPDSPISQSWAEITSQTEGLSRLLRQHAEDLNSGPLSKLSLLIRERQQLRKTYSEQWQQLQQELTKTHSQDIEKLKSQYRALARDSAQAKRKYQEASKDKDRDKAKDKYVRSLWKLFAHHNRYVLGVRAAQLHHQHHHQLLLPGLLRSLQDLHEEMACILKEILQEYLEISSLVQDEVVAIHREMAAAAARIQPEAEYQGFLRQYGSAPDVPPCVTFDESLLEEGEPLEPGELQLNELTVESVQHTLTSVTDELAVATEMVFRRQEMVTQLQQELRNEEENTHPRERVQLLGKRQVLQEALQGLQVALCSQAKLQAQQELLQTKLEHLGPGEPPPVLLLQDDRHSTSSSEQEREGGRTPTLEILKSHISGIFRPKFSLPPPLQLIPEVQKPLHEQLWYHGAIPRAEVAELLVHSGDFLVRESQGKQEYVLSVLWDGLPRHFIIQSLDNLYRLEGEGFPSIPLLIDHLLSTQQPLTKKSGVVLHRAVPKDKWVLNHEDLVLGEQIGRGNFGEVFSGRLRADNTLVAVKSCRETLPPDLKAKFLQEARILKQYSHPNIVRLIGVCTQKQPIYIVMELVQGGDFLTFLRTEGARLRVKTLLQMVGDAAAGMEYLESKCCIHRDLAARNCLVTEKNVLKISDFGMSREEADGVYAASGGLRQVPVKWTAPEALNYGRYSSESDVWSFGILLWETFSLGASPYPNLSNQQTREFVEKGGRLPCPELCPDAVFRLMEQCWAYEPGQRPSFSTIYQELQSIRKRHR

EPHB2 = EPHB2 (UniProt P29323); assay: as above
Chain of EPHB2 (P29323 whole entry, looked up): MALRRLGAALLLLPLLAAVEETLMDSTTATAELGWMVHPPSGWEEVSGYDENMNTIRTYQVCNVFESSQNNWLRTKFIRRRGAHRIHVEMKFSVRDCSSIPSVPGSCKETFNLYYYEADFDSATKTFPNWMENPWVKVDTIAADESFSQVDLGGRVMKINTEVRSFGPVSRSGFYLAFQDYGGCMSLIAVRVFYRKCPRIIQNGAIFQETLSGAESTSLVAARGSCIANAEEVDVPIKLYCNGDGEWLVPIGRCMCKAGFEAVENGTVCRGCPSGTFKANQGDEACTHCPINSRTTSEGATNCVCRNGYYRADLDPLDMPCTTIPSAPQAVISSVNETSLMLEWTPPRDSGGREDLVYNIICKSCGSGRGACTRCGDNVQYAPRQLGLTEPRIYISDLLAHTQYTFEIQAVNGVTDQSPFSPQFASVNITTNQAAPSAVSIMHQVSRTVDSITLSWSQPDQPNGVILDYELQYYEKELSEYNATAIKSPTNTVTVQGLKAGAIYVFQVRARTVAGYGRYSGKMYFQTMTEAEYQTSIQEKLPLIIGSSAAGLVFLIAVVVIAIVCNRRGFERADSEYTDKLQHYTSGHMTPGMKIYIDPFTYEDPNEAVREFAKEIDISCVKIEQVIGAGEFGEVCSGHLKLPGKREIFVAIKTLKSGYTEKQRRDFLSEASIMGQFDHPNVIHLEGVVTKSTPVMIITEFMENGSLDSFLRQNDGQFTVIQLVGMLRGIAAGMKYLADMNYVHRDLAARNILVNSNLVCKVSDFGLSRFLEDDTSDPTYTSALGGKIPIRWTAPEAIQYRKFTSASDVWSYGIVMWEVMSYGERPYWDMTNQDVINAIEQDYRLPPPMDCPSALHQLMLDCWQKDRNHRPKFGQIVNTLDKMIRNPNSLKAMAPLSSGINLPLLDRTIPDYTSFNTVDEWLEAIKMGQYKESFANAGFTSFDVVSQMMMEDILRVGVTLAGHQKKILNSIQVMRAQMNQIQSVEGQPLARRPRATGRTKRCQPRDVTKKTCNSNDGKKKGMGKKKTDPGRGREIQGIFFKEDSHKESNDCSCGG

Jak2 = Jak2 (UniProt O60674); assay: as above
Chain of Jak2 (O60674 whole entry, looked up): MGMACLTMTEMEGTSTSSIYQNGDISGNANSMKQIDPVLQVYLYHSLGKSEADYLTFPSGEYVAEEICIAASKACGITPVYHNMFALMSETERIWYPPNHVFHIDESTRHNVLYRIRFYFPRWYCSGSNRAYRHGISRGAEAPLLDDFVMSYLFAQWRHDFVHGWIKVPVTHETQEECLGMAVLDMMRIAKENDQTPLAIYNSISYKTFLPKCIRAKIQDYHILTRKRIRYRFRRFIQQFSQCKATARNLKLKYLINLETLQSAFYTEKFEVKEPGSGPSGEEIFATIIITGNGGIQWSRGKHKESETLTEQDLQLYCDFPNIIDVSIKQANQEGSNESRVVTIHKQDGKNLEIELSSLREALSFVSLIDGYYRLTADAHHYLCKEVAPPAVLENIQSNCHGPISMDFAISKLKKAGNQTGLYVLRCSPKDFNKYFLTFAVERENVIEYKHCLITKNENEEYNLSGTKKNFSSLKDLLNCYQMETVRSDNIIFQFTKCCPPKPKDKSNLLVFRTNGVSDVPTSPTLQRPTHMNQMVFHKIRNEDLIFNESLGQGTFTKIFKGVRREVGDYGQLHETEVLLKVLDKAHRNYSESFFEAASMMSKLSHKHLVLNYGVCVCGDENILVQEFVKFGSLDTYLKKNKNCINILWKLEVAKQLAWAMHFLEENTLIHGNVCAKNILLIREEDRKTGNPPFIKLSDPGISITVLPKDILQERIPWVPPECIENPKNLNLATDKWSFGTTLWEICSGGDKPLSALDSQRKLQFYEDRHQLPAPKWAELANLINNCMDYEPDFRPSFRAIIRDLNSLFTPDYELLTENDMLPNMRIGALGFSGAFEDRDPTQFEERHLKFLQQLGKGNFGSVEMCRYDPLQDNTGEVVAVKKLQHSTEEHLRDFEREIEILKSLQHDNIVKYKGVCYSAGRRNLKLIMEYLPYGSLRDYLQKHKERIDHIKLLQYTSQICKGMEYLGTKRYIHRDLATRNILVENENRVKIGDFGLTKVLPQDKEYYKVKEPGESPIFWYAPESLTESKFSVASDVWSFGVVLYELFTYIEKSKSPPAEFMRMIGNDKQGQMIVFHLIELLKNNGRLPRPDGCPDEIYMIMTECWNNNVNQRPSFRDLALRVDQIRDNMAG

FGFR3 = FGFR3 (UniProt P22607); assay: as above
c-Abl (mouse) = assay: as above
Fer (mouse) = assay: as above
Hck = Hck (UniProt P08631); assay: as above
Chain of Hck (P08631 whole entry, looked up): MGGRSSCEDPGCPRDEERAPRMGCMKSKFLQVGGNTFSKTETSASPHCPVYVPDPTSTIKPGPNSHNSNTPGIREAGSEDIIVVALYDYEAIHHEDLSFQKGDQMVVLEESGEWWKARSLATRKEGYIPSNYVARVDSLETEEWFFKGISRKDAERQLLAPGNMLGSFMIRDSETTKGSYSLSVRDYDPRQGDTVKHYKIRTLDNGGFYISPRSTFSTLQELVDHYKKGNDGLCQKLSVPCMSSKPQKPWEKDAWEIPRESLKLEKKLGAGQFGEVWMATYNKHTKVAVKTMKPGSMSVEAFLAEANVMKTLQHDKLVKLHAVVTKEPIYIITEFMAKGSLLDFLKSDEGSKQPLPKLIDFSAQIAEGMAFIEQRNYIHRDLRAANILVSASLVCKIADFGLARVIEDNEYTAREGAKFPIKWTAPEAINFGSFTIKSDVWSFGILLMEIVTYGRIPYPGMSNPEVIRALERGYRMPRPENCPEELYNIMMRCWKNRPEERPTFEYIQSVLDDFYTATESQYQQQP

EPHB1 = EPHB1 (UniProt P54762); assay: as above
Chain of EPHB1 (P54762 whole entry, looked up): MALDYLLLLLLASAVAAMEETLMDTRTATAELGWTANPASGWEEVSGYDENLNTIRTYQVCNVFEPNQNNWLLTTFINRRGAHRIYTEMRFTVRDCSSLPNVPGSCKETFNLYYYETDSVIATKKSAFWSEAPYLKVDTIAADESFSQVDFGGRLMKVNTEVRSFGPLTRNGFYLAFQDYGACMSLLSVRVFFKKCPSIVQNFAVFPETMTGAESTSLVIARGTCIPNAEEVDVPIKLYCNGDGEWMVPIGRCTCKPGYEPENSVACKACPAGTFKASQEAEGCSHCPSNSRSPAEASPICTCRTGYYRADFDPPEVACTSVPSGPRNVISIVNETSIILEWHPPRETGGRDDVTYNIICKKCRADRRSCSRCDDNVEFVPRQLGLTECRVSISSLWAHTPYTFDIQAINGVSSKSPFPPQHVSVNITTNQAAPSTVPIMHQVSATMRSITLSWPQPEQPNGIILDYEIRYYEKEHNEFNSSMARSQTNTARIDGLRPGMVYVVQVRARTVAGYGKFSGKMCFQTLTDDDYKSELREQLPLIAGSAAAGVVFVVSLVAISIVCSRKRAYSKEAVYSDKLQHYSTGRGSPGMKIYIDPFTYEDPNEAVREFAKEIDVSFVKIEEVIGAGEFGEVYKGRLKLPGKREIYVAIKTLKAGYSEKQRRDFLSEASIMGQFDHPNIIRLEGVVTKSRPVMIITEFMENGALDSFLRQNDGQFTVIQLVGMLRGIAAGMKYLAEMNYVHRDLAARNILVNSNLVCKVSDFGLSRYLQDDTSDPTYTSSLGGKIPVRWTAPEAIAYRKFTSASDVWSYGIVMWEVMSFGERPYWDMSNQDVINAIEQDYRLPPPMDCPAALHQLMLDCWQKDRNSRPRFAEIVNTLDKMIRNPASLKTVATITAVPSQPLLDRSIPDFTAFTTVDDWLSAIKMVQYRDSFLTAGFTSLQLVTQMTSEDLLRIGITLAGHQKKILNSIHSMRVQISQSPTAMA

FGFR1 = FGFR1 (UniProt P11362); assay: as above
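For SH2 binding enrichment of the phosphorylated peptide, bacterial display in this document: peptide library displayed on the E. coli surface as eCPX fusions, selected cells deep-sequenced, score is each peptide's frequency after selection divided by its frequency in the input.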
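For phosphorylation enrichment, bacterial display in this document: 11-residue human phosphosite peptides and single-mutation variants displayed on the E. coli surface, counted by deep sequencing, each peptide's frequency after selection divided by its frequency in the unselected input library; frequency after pTyr selection over input frequency; kinase dosed for 20-30% of maximal phosphorylation in three min.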

Sequence	SH2 binding enrichment (c-Src SH2)	SH2 binding enrichment (SHP2-C SH2)	SH2 binding enrichment (Grb2 SH2)	phosphorylation enrichment (MERTK)	phosphorylation enrichment (Fyn)	phosphorylation enrichment (AncSZ)	phosphorylation enrichment (c-Src)	phosphorylation enrichment (Fes)	phosphorylation enrichment (EPHB2)	phosphorylation enrichment (Jak2)	phosphorylation enrichment (FGFR3)	phosphorylation enrichment (c-Abl (mouse))	phosphorylation enrichment (Fer (mouse))	phosphorylation enrichment (Hck)	phosphorylation enrichment (EPHB1)	phosphorylation enrichment (FGFR1)
ETAENYLGHTA [HSPA9_Y181]	0.497	0.588	0.972	0.503	0.442	0.858	0.414	0.865	0.652	0.622	0.523	0.559	0.443	0.47	0.43	0.486
ETKKQYNSFTY [TMED3_Y85_D86N]	1.03	0.704	1.1	0.463	0.592	0.617	0.491	0.753	0.434	0.54	0.455	0.435	0.434	0.423	0.436	0.496
ETRWKYHFEVV [GCNT3_Y267]	0.437	0.678	0.712	0.418	0.439	1.42	0.364	1.52	0.706	1.35	1.04	0.979	0.57	0.563	0.701	0.505
EVVGRYSVHNA [MLH1_Y183]	0.42	0.597	0.668	0.421	0.487	0.633	0.497	0.717	0.451	0.698	0.513	0.589	0.405	0.488	0.437	0.457
EWQQIYTFDSG [JUP_Y20_T19I_YF]	0.555	0.92	1.23	9.37	11.9	1.78	9.4	1.58	0.906	1.21	5.97	1.06	4.03	7.35	1.21	7.82
EYQLPYYNTVP [BMPR1A_Y457_M460T]	6.88	0.872	9.47	2.31	1.42	4.46	5.66	1.05	1.19	5.82	5.15	2.54	1.94	1.93	0.966	7.09
EYRFIYMAVQH [PTPN11_Y515_Q510E]	0.556	0.765	0.831	1.29	4.15	1.39	3.46	1.34	1.02	1.26	1.71	2.02	3.17	4.57	1.96	2.02
FDNPIYQKTTE [LDLR_Y828_V827I]	0.632	0.966	1.03	2.38	1.1	0.833	1.44	0.751	1.18	0.681	0.49	1.82	1.59	2.76	1.16	0.543
FFLGKYLQEVL [KLB_Y910_YF]	1.29	1.71	1.99	0.391	0.342	0.963	0.469	1.19	0.474	0.911	0.498	0.665	0.441	0.42	0.486	0.436
FGGLRYGFGVL [KRTAP20-2_Y13_YF]	0.674	0.913	0.732	0.42	0.348	0.786	0.35	0.876	0.379	0.753	0.56	0.608	0.351	0.399	0.443	0.733
FGIAQYCCRMG [LRRK2_Y2023_YF]	0.936	0.836	1.26	1.25	0.423	0.908	0.417	0.797	6.66	0.625	0.584	1.34	0.467	0.777	0.751	0.614
FGSSSSGGAGG [RPA2_Y14_Y14S_YF]	0.358	0.622	0.854	0.394	0.419	0.499	0.458	0.638	0.31	0.669	0.455	0.511	0.417	0.312	0.287	0.409
FLAVGYHMPHI [IDS_Y225_K227M]	3.36	1.18	1.1	0.313	0.395	0.761	0.334	0.833	0.403	0.862	0.562	1.33	0.402	0.51	0.346	0.485
FLGKGYSDGGC [MC4R_Y35_S30F]	0.509	0.832	1.1	0.552	0.548	0.876	0.592	1.14	0.567	0.95	0.623	0.818	0.542	0.579	0.503	0.672
FPKVRYHWLVL [APTX_Y214_A212V_YF]	0.892	0.999	1.31	0.461	0.42	0.994	0.513	1.21	0.672	1.18	0.631	0.978	0.529	0.425	0.81	0.428
FPLELYERVRM [PRKCG_Y312_YF]	0.485	0.722	0.832	0.444	0.629	1.39	0.488	1.28	0.982	1.09	0.932	0.804	2.39	1.24	1.94	0.988
FPMLNYKDIRK [CFAP221_Y798]	0.516	0.635	0.976	0.431	0.493	0.49	0.416	0.628	0.384	0.469	0.408	0.398	0.362	0.441	0.292	0.346
FPPTHYIRRMP [SLC4A11_Y820_V824M_YF]	0.506	0.821	0.982	0.524	0.561	0.919	0.543	0.981	0.661	0.597	0.502	0.718	0.445	0.601	0.528	0.498
FQEKGYNKELR [CHRND_Y38]	0.485	0.882	0.814	0.382	0.335	0.675	0.378	0.74	0.268	0.57	0.519	0.45	0.376	0.351	0.45	0.471
FQEKSYIKGTS [LCTL_Y331_L326F]	0.416	0.553	0.918	0.321	0.364	0.625	0.457	0.657	0.531	0.87	0.426	0.612	0.355	0.398	0.33	0.423
FRQLPYCPSVE [CTNND2_Y508_Q507P_YF]	0.458	0.472	0.722	0.486	0.538	1.25	0.499	1.39	0.748	1.08	1.2	0.837	0.603	0.776	0.647	0.526

Now from value to sequence, other results behind:

SH2 binding enrichment (c-Src SH2)	SH2 binding enrichment (SHP2-C SH2)	SH2 binding enrichment (Grb2 SH2)	Sequence	phosphorylation enrichment (MERTK)	phosphorylation enrichment (Fyn)	phosphorylation enrichment (AncSZ)	phosphorylation enrichment (c-Src)	phosphorylation enrichment (Fes)	phosphorylation enrichment (EPHB2)	phosphorylation enrichment (Jak2)	phosphorylation enrichment (FGFR3)	phosphorylation enrichment (c-Abl (mouse))	phosphorylation enrichment (Fer (mouse))	phosphorylation enrichment (Hck)	phosphorylation enrichment (EPHB1)	phosphorylation enrichment (FGFR1)
1.05	0.877	0.838	ETKRPYTVILI [SBDS_Y128]	0.479	0.457	1.06	0.458	1.15	0.527	1.01	0.722	0.825	1.16	0.481	0.57	0.582
0.474	1	0.756	ETLLYYGYRRS [POR_Y564_C566Y]	6.93	9.27	1.21	10.7	0.806	1.06	5.24	1.18	9.52	0.766	14.6	1.21	1.3
0.443	0.573	0.605	ETPSEYLEIVR [TMEM130_Y412]	0.452	0.555	1.17	0.49	1.01	0.608	1.01	0.77	0.652	0.493	0.652	0.848	0.645
0.562	0.571	0.916	EWKNNCPRLRE [OPA1_Y582_Y582C]	0.415	0.395	0.9	0.411	1.13	0.582	0.81	0.654	0.592	0.433	0.472	0.492	0.508
1.14	0.751	1.19	FDFKKYGKGLR [ZNF445_Y433_YF]	0.389	0.318	0.531	0.484	0.671	0.436	0.525	0.498	0.392	0.304	0.45	0.426	0.575
0.711	0.426	0.771	FEDTLYTVLHR [UNC13D_Y61_A59T_YF]	7.86	5.65	2.45	6.22	1.38	4.95	1.56	1.5	1.99	5.83	7.58	9.72	1.18
0.588	0.75	1.07	FGFPGYQSKHF [TIMP3_Y177_YF]	0.405	0.521	0.534	0.401	0.651	0.398	0.5	0.499	0.574	0.406	0.496	0.422	0.47
0.704	0.959	0.91	FIAVGYVDDSQ [HLA-A_Y51_T55S]	0.3	0.333	0.783	0.394	1.08	0.491	0.839	0.629	0.617	0.444	0.445	0.469	0.391
0.572	0.814	0.866	FLAATYPTLGQ [NF1_Y2508_V2511L_YF]	0.356	0.422	0.572	0.404	0.674	0.4	0.523	0.572	0.549	0.4	0.389	0.723	0.424
1.25	1.42	1.36	FLAVGYHKLHI [IDS_Y225_P228L]	0.471	0.647	1.03	0.462	1.14	0.575	1.13	0.804	0.833	0.432	0.427	0.545	0.447
1.64	1.6	1.61	FLAVGYHKPRI [IDS_Y225_H229R]	0.272	0.426	0.638	0.305	0.838	0.44	0.502	0.5	0.481	0.402	0.374	0.477	0.379
0.538	0.727	0.818	FPDFVYKCIKA [DPYSL2_Y479_R481C]	0.446	0.51	1.35	0.595	1.39	0.613	1.44	0.788	0.95	0.533	0.563	0.691	0.616

— the supplement of paper PMC10065799, “High-throughput profiling of sequence recognition by tyrosine kinases and SH2 domains using bacterial peptide display” (eLife, 2023)
